# According to the nanobody polyreactivity screen of Harvey et al. (2022):
# Test: yeast display, Sf9 membrane polyspecificity reagent, FACS + sequencing; frameworks hold sequencing errors
# Procedure, shortened: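 Nanobodies came from a synthetic yeast display library in Saccharomyces cerevisiae BJ5465, induced with galactose for 36–48 hours and stained for 1 hour at 4 °C with 10% biotinylated, detergent-solubilized Sf9 membrane reagent. Cells were enriched on streptavidin microbeads and then FACS-sorted, with low and high (top ~1%) gates set on anti-HA fluorescence for expression and streptavidin fluorescence for reagent binding. Each polyreactivity label reflects the gate a clone came from. Genes were amplified by colony PCR, sequenced by MiSeq 2 × 250 and filtered by CDR length.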
row,Sequence,polyreactivity (PSR sort gate)
1,QVQLVESGGGLVQAGGSLRLSCAASGFIFFAYAMGWYRQAPGKERELVAAISRTGGSTYYADSVKGRFTISRDNAKNTVYLQMNSLKPEDTAVYYCARPKYAWSYSRGNYWGQGTQVTVSS,high polyreactivity
2,QVQLVESGGGLVQAGGSLRLSCAASGIIFTGNAMGWYIQAPGKERELVAAITSGDTTNYADSVKGRFTISRDNAKNTVYLQMNSLKPEDSAVYYCAKELQVRQAGDYWGQGTQVTVSS,low polyreactivity
3,QVQLVESGGGLVQAGGSLRLSCAASGLTFPYYVMGWSRQAPGKERELVAAITTDDRTYYADSVKGRFTISRDNAKNTVYLQMNSLKPEDTAVYYCNVVIYYFNSRTVYYDYDYWGQGTQVTVSS,high polyreactivity
4,QVHLVESGGGLVQAGGTLRLSCAASGRIFHPNEMRWYRQAPGKEWELVAAISWRGTSTYADSVKGRFTISRDNAKNTVYLQMNSLKPEDTAVYYCVRRYTGLPGWSSYGSYESGYWGQGTQVTVSS,high polyreactivity
5,QVQLVESGGGLVQAGCSLRLSCAASGRTFARYAMGWSRQAPGKVRELVAGISRSGDSTHYADSVKGRFTISRDNAKNTVYLQMNSRKPEDTSVYYCHKETPTIGARKYEYWGQGTQVTVSS,low polyreactivity
6,QVQLVESGGGLVQAGGSLRLSCAASGSTFVRYVMGWYRQAPGKQRELVAAISRRGGSTYYADSVEGRFTISRDNAKNTVYLQMNSLKPEDTAVYYCAARGTSRKYYYWGQGTQVTVSS,high polyreactivity
7,QVQLVESAGGLVQAGGSLRLSCAASGSTFYAYALGWYRQAPGKERELVAAISSDGTNYADSVKGRFTISRDNAKNTVYLQMNSLKPEDTSVYYCDADLLLYSSQDNDYWGQGTQVPVSS,low polyreactivity
8,QVQLVESGGGLVQAGGSLRLSCAASGFILARYAMGWYRQAPGKERELVAVISSGGSSTFYADSVKGRFTISRDNAKNTVYLQMNSLKPEDTAVYYCAARYKSSKKVGFDYWGQGTQVTVSS,high polyreactivity
9,QVQLVESGGVLVQAGGSLRLSCAASGSIFDTYAMGWYRQAPGKERELVAAITWSGSSTYYADSVKGRFTISRDNAKNTVYLQMNSLKQEDTAVYYCAKDYYVEVTTEYDYWGQGTQVTVSS,high polyreactivity
10,QVQLVESGGGLVQAGGSLRLSCAASGFIYDYAMGWYRQAPGKEREFVARINWSGGSTYYADSVKGRFTISRDNAKNTVYLQMNSLKPEDTAVFYCATSGWAWRTSNPYEYWGQGTQVTVSS,low polyreactivity
11,QVQLVESGGGLVQAGGSLRLSCAASGRTFWVYAMGWYRQAPGKERELVAGISWDDGSTDYADSVKGRFTISRDNAKNTVYLQMNSLKPEDTAVYYCNAGEYYKGYYYWGQGTQVTVSS,low polyreactivity
12,QVQLEESGGGLVQAGGSLRLSCAAYGSTFSYAMGWYRQAPGKERELVAAITIGGRTSYADSVKGRFTISRDNAKNTVYLQMSSLKPEDTAVYYCAADDLPGMDYWGQGTQVTVSS,low polyreactivity
13,QVQLVESGGGLVQAGGSLRLSCAASGSIFYGNAMGWYRQAPGKERELVAAISYRGVRTYYADSVKGRFTISRDNAKNTVYLQMNSLKPEDTAVYYCAATQGYRREYDYWGQGTQVTVSS,high polyreactivity
14,QVQLVESGGGLVQAGGSLRLSCAASGFTFFTYAMGWYRQAPGKERELVAAIRWRGSTTYYADSVKGRFTISRDNAKYTVYLQMNSLKPEDTAVYYCAAELRFRQTGLAYWGDYWGQGTQVTVSS,high polyreactivity
15,QVQLVESGGGLVQAGGSLRLSCAASGLSFSVYAMGWSRQAPGTERELVASIDLSGGNTYYADSVKGRFTISRDNAKNTVYLQMNSLKPEDTAVYYCAKYNPYYYSFSVWDGGDYWGQGTQVTVSS,low polyreactivity
16,QVQLVASGGALVQAGGSLRLSCAASGFIFDYYAMGRYRPAPGKERELVAAITSRSGSTYYADSVKGRFTISRDNAKNTVYLQMNSLKPEDTAVYYCARRFKYGSTAWRFYYWGQGTQVTVSS,high polyreactivity

row,Sequence,polyreactivity (PSR sort gate)
1,QVQLVESGGGLVQAGGSLRLSCAASGRIFKKNAMGWYRQAPGKERELVADINWTGGSTYYADSVKGRFTISRDYAKNTVDLQMNSLKPEDTAVYYCAVGVYPSYRGTTFSTRRDYWGQGTQVTVSS,low polyreactivity
2,QVQLVESGGCLVQAGGSLRLSCPPSGSIFIYYAMGWYRHAPGKERELVAAISWSCGDTYYADSVKGRFTISRDNAKNTVYLQMNSLKPEDTAVYYCNADFDPYYPYTAWDSVLTHDEYWGQGTQVTVSS,low polyreactivity
3,QVQLVESGGGLVQAGGSLRLSCAASGSTIATYAMGWYRQAPGKERELVATISSSGSGTYYADSVKGRFTISRDNAKNTVYLQMNSLKPEDTAVYYCAVDSRGKLGISGEYGYWGQGSQVTVSS,low polyreactivity
4,QVQLVESGGGLVQAGGSLRLSCAASGIIFPYYSMGWYRQAPGKERELVAAITSSGGSTYYADSVKGRFTISRDNAKNTVYLQMNSLKPEDTAVYYCAAQTWGHGGDSWGQGTQVTVSS,high polyreactivity
5,QVQLVESGGGLVQAGGSLRLSCAASGSIIRRNVMGWYRQAPGKERELVAASSWSGDRTYYADSVKGRFTISRDNAKNTVYLQMNSLKPEDTAVYYCAAANASPRRYGQYDYWGQGTQVTVSS,high polyreactivity
6,QVQLVESGGGLVQAGGSLRLSCAASGRIFTYYAMGWYRQAPGKERELVASITGSGGSTDYADSVKGRFTISLDNAKNTVYLQMNSLKPEDTAVYYCAADHSGVSRYDYWGQGTQVTVSS,low polyreactivity
7,QVQLVESGGGLVQAGGSLRLSCAASGSTFAIYGMGWYRQAPGKERELVAGITRGGSTNYADSVKGRFTISRDNAKNTVYLQMNSLKPEDTAVYYCNKVQRSTYYNGYDYWGQGTQVTVSS,high polyreactivity
8,QVQLVESGGGLVQAGGSLRLSCAASGSTFLFNVMGWYRQAPGKERELVAAITSGASTYYADSVKGRFTISRDNAKNTVYLQMNSLEPEDTAVYYCAVDYSFRYDYVQRYYYWGQGTQVTVSS,high polyreactivity
9,QDQLVESGGGLVQAGGSLRLSCAASGRNIGGYAMGWNRLAPGKEWELVAAISRSGGSTYYADSVKGRFTISRDNAKNTVYLQMNSLKPEDTAVYYCAAETVSSFYTLWTGKYDYWGQGTQVTVSS,high polyreactivity
10,QVQLVESGGGLVQAGGSLRLSCAASGSTLNYYAMGWYRQAPGKEWELVAAITWSGGSTSYADSVKGRFTISRDNAKNTVYLQMNSLKPEDTAVYYCATDFPTVQLYDTDWLSSDMGYWGQGTQVTVSS,low polyreactivity
11,QVQLVESGGGLVQAGGSLRLSCAASGSIFSSNAMGWYRQAPGKERELVAAISRRGGSTYYADSVKGRFTISRDNAKNTVYLQMNSLKPEDTAVYYCNAYPWLLSTRYDYWGQGTQVTVSS,high polyreactivity
12,QVQLVESGGGLVQAGGSLRLICAASGRIFDDNAMGWYRQAPGKERELVATISSTGGRTYYADSVKGRFTISRDNAKNTVYLQMNSLKPEDTAVYYCAARRRQGGYYYWGQGTQVTVSS,high polyreactivity
13,QVHLVASGGGLVQAGGSLRLSCAASGSIFRRYAKGSYRQAPGKERELGAGISSGGYTNYAASVKGPFTISRDNAKNNVYLQRYSLKPEDTAVYYCAANQYRDVRYRPVDYWGQGTQVTVSS,high polyreactivity
14,QVQLVESGGGLVQAGGSLRLSCAASGSTFFLNAMGWYRQAPGKERELVAAISYSDSGTNYADSVKGRFTISRDNAKNTVYLQMNSLKPEDTAVYYCATAVRPWYVTSGNYWGQGTQVTVSS,low polyreactivity
15,QVQLEESGGGLVQAGFSLRLSCAASGRIFVPNAMGWSRPAPGKEGELVAAIRWTGGSTYYADSVQGRFTISRDNAKNTVYLQMNSLKPEDTAVSYCAARYAARRLTYFWPQYARYDYWGQGTQVTVSS,high polyreactivity
